Measured values: PMC2819628 (The Biochemical journal, 2010)

Target: T1, Isu1, mature form (amino acids 35-165) (yeast, UniProt Q03020 35-165)
T1 sequence (looked up): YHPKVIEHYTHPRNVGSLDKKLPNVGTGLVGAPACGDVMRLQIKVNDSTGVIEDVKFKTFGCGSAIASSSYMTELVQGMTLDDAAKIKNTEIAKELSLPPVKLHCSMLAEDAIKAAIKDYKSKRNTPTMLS
Test: other fluorescence titration

B1: Yfh1 (yeast frataxin), wild type, mature form (amino acids 52-174), holo form (natural protein, S. cerevisiae (yeast), UniProt Q07540 52-174, looked up)
chain: VESSTDGQVVPQEVLNLPLEKYHEEADDYLDHLLDSLEELSEAHPDCIPDVELSHGVMTLEIPAFGTYVINKQPPNKQIWLASPLSGPNRFDLLNGEWVSLRNGTKLTDILTEEVEKAISKSQ
**Q.** Does B1 bind?
**A.** binds
